{"source": "the Human Domainome abundance scans (Beltran et al. 2025)", "parents": {"B1": {"name": "POU domain, class 4, transcription factor 1, residues 266 to 347; numbered along this chain, Q01851 (parent)", "chain": "RELEAFAERFKQRRIKLGVTQADVGSALANLKIPGVGSLSQSTICRFESLTLSHNNMIALKPILQAWLEEAEGAQREKMNKP"}}, "note": "± gives the uncertainty stated by the source.", "data": [{"variants_of": "B1", "assay": "abundance fitness (aPCA) (normalised: wild type 0, dead -1); higher = more abundant; growth selection in yeast, the domain comes from the species named", "conditions": "Homo sapiens", "values": [{"variant": "RELEAFAERFKQRRIKLGVTQADVGSALANLKIPGVGSLSQSMICRFESLTLSHNNMIALKPILQAWLEEAEGAQREKMNKP", "note": "[T43M]", "abundance fitness": "0.037 ± 0.076"}, {"variant": "RELEAFAERFKQRRIKLGVTQADVGSALANLKIPGVGSLSQSHICRFESLTLSHNNMIALKPILQAWLEEAEGAQREKMNKP", "note": "[T43H]", "abundance fitness": "0.063 ± 0.12"}, {"variant": "RELEAFAERFKQRRIKLGVTQADVGSALANLKIPGVGSLSQSAICRFESLTLSHNNMIALKPILQAWLEEAEGAQREKMNKP", "note": "[T43A]", "abundance fitness": "-0.044 ± 0.051"}, {"variant": "RELEAFAERFKQRRIKLGVTQADVGSALANLKIPGVGSLSQSEICRFESLTLSHNNMIALKPILQAWLEEAEGAQREKMNKP", "note": "[T43E]", "abundance fitness": "-0.187 ± 0.072"}, {"variant": "RELEAFAERFKQRRIKLGVTQADVGSALANLKIPGVGSLSQSDICRFESLTLSHNNMIALKPILQAWLEEAEGAQREKMNKP", "note": "[T43D]", "abundance fitness": "-0.079 ± 0.075"}, {"variant": "RELEAFAERFKQRRIKLGVTQADVGSALANLKIPGVGSLSQSSICRFESLTLSHNNMIALKPILQAWLEEAEGAQREKMNKP", "note": "[T43S]", "abundance fitness": "-0.109 ± 0.061"}, {"variant": "RELEAFAERFKQRRIKLGVTQADVGSALANLKIPGVGSLSQSKICRFESLTLSHNNMIALKPILQAWLEEAEGAQREKMNKP", "note": "[T43K]", "abundance fitness": "-0.286 ± 0.15"}, {"variant": "RELEAFAERFKQRRIKLGVTQADVGSALANLKIPGVGSLSQSPICRFESLTLSHNNMIALKPILQAWLEEAEGAQREKMNKP", "note": "[T43P]", "abundance fitness": "-0.606 ± 0.14"}, {"variant": "RELEAFAERFKQRRIKLGVTQADVGSALANLKIPGVGSLSQSCICRFESLTLSHNNMIALKPILQAWLEEAEGAQREKMNKP", "note": "[T43C]", "abundance fitness": "-0.101 ± 0.072"}, {"variant": "RELEAFAERFKQRRIKLGVTQADVGSALANLKIPGVGSLSQSVICRFESLTLSHNNMIALKPILQAWLEEAEGAQREKMNKP", "note": "[T43V]", "abundance fitness": "-0.031 ± 0.045"}, {"variant": "RELEAFAERFKQRRIKLGVTQADVGSALANLKIPGVGSLSQSYICRFESLTLSHNNMIALKPILQAWLEEAEGAQREKMNKP", "note": "[T43Y]", "abundance fitness": "-0.238 ± 0.21"}, {"variant": "RELEAFAERFKQRRIKLGVTQADVGSALANLKIPGVGSLSQSNICRFESLTLSHNNMIALKPILQAWLEEAEGAQREKMNKP", "note": "[T43N]", "abundance fitness": "-0.199 ± 0.26"}, {"variant": "RELEAFAERFKQRRIKLGVTQADVGSALANLKIPGVGSLSQSLICRFESLTLSHNNMIALKPILQAWLEEAEGAQREKMNKP", "note": "[T43L]", "abundance fitness": "0.053 ± 0.056"}, {"variant": "RELEAFAERFKQRRIKLGVTQADVGSALANLKIPGVGSLSQSWICRFESLTLSHNNMIALKPILQAWLEEAEGAQREKMNKP", "note": "[T43W]", "abundance fitness": "-0.131 ± 0.068"}, {"variant": "RELEAFAERFKQRRIKLGVTQADVGSALANLKIPGVGSLSQSRICRFESLTLSHNNMIALKPILQAWLEEAEGAQREKMNKP", "note": "[T43R]", "abundance fitness": "-0.483 ± 0.06"}, {"variant": "RELEAFAERFKQRRIKLGVTQADVGSALANLKIPGVGSLSQSFICRFESLTLSHNNMIALKPILQAWLEEAEGAQREKMNKP", "note": "[T43F]", "abundance fitness": "-0.587 ± 0.3"}, {"variant": "RELEAFAERFKQRRIKLGVTQADVGSALANLKIPGVGSLSQSQICRFESLTLSHNNMIALKPILQAWLEEAEGAQREKMNKP", "note": "[T43Q]", "abundance fitness": "-0.113 ± 0.11"}, {"variant": "RELEAFAERFKQRRIKLGVTQADVGSALANLKIPGVGSLSQSTKCRFESLTLSHNNMIALKPILQAWLEEAEGAQREKMNKP", "note": "[I44K]", "abundance fitness": "-1.04 ± 0.24"}, {"variant": "RELEAFAERFKQRRIKLGVTQADVGSALANLKIPGVGSLSQSTECRFESLTLSHNNMIALKPILQAWLEEAEGAQREKMNKP", "note": "[I44E]", "abundance fitness": "-0.814 ± 0.12"}, {"variant": "RELEAFAERFKQRRIKLGVTQADVGSALANLKIPGVGSLSQSTYCRFESLTLSHNNMIALKPILQAWLEEAEGAQREKMNKP", "note": "[I44Y]", "abundance fitness": "-1.01 ± 0.42"}, {"variant": "RELEAFAERFKQRRIKLGVTQADVGSALANLKIPGVGSLSQSTWCRFESLTLSHNNMIALKPILQAWLEEAEGAQREKMNKP", "note": "[I44W]", "abundance fitness": "-0.827 ± 0.12"}, {"variant": "RELEAFAERFKQRRIKLGVTQADVGSALANLKIPGVGSLSQSTSCRFESLTLSHNNMIALKPILQAWLEEAEGAQREKMNKP", "note": "[I44S]", "abundance fitness": "-0.68 ± 0.12"}, {"variant": "RELEAFAERFKQRRIKLGVTQADVGSALANLKIPGVGSLSQSTMCRFESLTLSHNNMIALKPILQAWLEEAEGAQREKMNKP", "note": "[I44M]", "abundance fitness": "-0.437 ± 0.086"}, {"variant": "RELEAFAERFKQRRIKLGVTQADVGSALANLKIPGVGSLSQSTRCRFESLTLSHNNMIALKPILQAWLEEAEGAQREKMNKP", "note": "[I44R]", "abundance fitness": "-0.999 ± 0.12"}, {"variant": "RELEAFAERFKQRRIKLGVTQADVGSALANLKIPGVGSLSQSTNCRFESLTLSHNNMIALKPILQAWLEEAEGAQREKMNKP", "note": "[I44N]", "abundance fitness": "-0.516 ± 0.23"}, {"variant": "RELEAFAERFKQRRIKLGVTQADVGSALANLKIPGVGSLSQSTPCRFESLTLSHNNMIALKPILQAWLEEAEGAQREKMNKP", "note": "[I44P]", "abundance fitness": "-0.864 ± 0.22"}, {"variant": "RELEAFAERFKQRRIKLGVTQADVGSALANLKIPGVGSLSQSTQCRFESLTLSHNNMIALKPILQAWLEEAEGAQREKMNKP", "note": "[I44Q]", "abundance fitness": "-0.989 ± 0.34"}, {"variant": "RELEAFAERFKQRRIKLGVTQADVGSALANLKIPGVGSLSQSTDCRFESLTLSHNNMIALKPILQAWLEEAEGAQREKMNKP", "note": "[I44D]", "abundance fitness": "-0.957 ± 0.48"}, {"variant": "RELEAFAERFKQRRIKLGVTQADVGSALANLKIPGVGSLSQSTGCRFESLTLSHNNMIALKPILQAWLEEAEGAQREKMNKP", "note": "[I44G]", "abundance fitness": "-1 ± 0.093"}, {"variant": "RELEAFAERFKQRRIKLGVTQADVGSALANLKIPGVGSLSQSTLCRFESLTLSHNNMIALKPILQAWLEEAEGAQREKMNKP", "note": "[I44L]", "abundance fitness": "-0.153 ± 0.058"}, {"variant": "RELEAFAERFKQRRIKLGVTQADVGSALANLKIPGVGSLSQSTACRFESLTLSHNNMIALKPILQAWLEEAEGAQREKMNKP", "note": "[I44A]", "abundance fitness": "-1.18 ± 0.21"}, {"variant": "RELEAFAERFKQRRIKLGVTQADVGSALANLKIPGVGSLSQSTFCRFESLTLSHNNMIALKPILQAWLEEAEGAQREKMNKP", "note": "[I44F]", "abundance fitness": "-0.726 ± 0.2"}, {"variant": "RELEAFAERFKQRRIKLGVTQADVGSALANLKIPGVGSLSQSTTCRFESLTLSHNNMIALKPILQAWLEEAEGAQREKMNKP", "note": "[I44T]", "abundance fitness": "-0.751 ± 0.15"}, {"variant": "RELEAFAERFKQRRIKLGVTQADVGSALANLKIPGVGSLSQSTVCRFESLTLSHNNMIALKPILQAWLEEAEGAQREKMNKP", "note": "[I44V]", "abundance fitness": "0.029 ± 0.044"}]}]}
